{"source": "patent US20200362049A1", "about": "(BLACK BELT THERAPEUTICS, published 2020)", "key": {"[1]": {"molecular_target": "T1, Human CD38 on cells (human, UniProt P28907 1-300)", "experiment": "cell-based or functional assay"}, "[2]": {"molecular_target": "T1, Human CD38 on cells", "experiment": "cell-based or functional assay", "remark": "listed apart in the source"}}, "data": [{"binder": "Daratumumab (antibody, human IgG1, kappa, V domains shown) VH: EVQLLESGGGLVQPGGSLRLSCAVSGFTFNSFAMSWVRQAPGKGLEWVSAISGSGGGTYYADSVKGRFTISRDNSKNTLYLQMNSLRAEDTAVYFCAKDKILWFGEPVFDYWGQGTLVTVSS VL: not shown", "values": [{"measurement": "ADCC, target Daudi cells: EC50 ug/ml DARA", "setting": "[1]", "result": 0.0139, "unit": "µg/mL"}, {"measurement": "CDC, 10% complement, target Daudi cells: EC50 ug/ml DARA (experiment 10)", "setting": "[2]", "result": 0.11, "unit": "µg/mL"}, {"measurement": "CDC, 10% complement, target Daudi cells: EC50 ug/ml DARA (experiment 11)", "setting": "[2]", "result": 0.07, "unit": "µg/mL"}]}]}
